Fold diff data for one molecule are collected here from US20220332804A1 (CSL INNOVATION, published 2022).

What all share (assay): SPR, KD relative to WT C2;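 also: biacore SPR at 37 °C, anti-C2 mAbs captured via immobilised goat anti-human IgG, C2 alanine or serine surface mutants as analytes, 1:1 model fitted, double-referenced sensograms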
In general terms: SPR reads the build-up and loss of mass on a sensor chip optically.

The target in assay [1] is T1, human C2 N703A (human, UniProt P06681 21-752).
T1 sequence: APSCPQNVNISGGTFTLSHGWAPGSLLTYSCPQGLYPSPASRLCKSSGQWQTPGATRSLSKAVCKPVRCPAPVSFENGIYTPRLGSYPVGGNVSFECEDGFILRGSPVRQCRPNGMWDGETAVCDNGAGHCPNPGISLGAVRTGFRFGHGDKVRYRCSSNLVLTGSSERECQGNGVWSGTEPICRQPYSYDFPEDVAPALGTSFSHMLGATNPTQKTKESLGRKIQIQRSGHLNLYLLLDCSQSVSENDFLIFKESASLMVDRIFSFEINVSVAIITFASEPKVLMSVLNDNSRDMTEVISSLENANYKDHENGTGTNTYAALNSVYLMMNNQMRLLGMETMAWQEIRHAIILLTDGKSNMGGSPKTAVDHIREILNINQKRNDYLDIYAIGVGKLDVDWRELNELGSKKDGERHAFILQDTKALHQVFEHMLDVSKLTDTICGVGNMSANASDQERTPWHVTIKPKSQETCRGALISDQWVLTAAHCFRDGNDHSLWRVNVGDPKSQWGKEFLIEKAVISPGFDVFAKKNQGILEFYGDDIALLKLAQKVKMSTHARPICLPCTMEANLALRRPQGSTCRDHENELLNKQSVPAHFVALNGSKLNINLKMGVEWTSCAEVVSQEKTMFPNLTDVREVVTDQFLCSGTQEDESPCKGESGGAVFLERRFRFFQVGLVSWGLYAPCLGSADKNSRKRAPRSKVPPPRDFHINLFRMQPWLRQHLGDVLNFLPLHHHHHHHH

Assay [2] concerns the target T2, human C2 M316A (human, UniProt P06681 21-752).
T2 sequence: T1 sequence with M296A, A683N

Assay [3] addresses T3, human C2 W420A (human, UniProt P06681 21-752).
T3 sequence: T1 sequence with W400A, A683N

Assay [4] addresses T4, human C2 R434A (human, UniProt P06681 21-752).
T4 sequence: T1 sequence with R414A, A683N

Where a chain is given by its changes, count along the chain named.

B1: RF16-226 (antibody, human IgG4 S228P, lambda)
heavy: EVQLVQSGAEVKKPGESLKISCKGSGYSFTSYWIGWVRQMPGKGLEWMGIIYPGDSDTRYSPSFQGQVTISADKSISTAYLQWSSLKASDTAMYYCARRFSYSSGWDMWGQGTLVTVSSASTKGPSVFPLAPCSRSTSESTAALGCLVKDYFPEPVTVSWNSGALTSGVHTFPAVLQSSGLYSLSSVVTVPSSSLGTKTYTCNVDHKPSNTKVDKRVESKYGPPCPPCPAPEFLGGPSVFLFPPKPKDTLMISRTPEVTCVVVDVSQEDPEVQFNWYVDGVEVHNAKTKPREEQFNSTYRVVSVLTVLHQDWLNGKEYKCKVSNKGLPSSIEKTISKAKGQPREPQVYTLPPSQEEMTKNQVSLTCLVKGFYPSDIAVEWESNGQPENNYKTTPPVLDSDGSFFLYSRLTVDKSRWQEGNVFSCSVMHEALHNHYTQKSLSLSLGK
light: SYELTQPPSVSVSPGQTARITCSGDALTSKYVAWYQQKSGLAPLLVIYEDTRRPSGIPAKFSGSSSGSVATLTISGAHGDDEADYYCYSTDASGHQRVFGGGTKLTVLSQPKAAPSVTLFPPSSEELQANKATLVCLISDFYPGAVTVAWKADGSPVKAGVETTKPSKQSNNKYAASSYLSLTPEQWKSHRSYSCQVTHEGSTVEKTVAPTECS
notes: pH-dependent anti-C2 antibody from a phage display library; also called WT
Turning to B1, the Fold diff in assay [1] amounted to 29 fold; in assay [2], 1 fold; in assay [3] it was 2 fold; in assay [4], 14 fold.
